Source: PMC2665295
Where two headings read alike, the source gives them in different places. Each block holds one substance with its values, some of them ahead of it.

Assays:
[1] = target: rat αCaMKII (Ca2+/calmodulin-dependent protein kinase II, α subunit) (rat) (UniProt P11275); assay: ITC
[2] = target: rat αCaMKII (Ca2+/calmodulin-dependent protein kinase II, α subunit) (rat) (UniProt P11275); assay: ITC; remark: listed apart in the source
[3] = target: rat αCaMKII (Ca2+/calmodulin-dependent protein kinase II, α subunit) (rat) (UniProt P11275)
[4] = target: rat αCaMKII (Ca2+/calmodulin-dependent protein kinase II, α subunit) (rat) (UniProt P11275); assay: ITC; remark: listed apart in the source
[5] = target: rat αCaMKII (Ca2+/calmodulin-dependent protein kinase II, α subunit) (rat) (UniProt P11275); assay: ITC; remark: listed apart in the source

rat αCaMKII (Ca2+/calmodulin-dependent protein kinase II, α subunit) (rat), sequence (P11275 whole entry): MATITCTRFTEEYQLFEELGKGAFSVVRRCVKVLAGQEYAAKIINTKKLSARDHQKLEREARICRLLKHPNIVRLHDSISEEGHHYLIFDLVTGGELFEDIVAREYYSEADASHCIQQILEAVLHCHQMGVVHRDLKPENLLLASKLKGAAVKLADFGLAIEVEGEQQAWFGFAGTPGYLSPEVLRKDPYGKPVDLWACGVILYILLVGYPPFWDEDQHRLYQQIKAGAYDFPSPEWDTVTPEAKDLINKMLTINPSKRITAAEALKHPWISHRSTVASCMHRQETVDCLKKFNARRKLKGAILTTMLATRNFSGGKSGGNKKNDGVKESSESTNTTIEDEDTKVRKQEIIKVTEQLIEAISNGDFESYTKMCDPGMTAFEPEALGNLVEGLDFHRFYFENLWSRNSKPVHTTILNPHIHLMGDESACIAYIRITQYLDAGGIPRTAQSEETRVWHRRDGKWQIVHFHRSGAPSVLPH

Kd [1]: 360 nM
dH [1]: -7.3 kcal/mol
stoichiometry N [1]: 0.979
Kd [2]: 370 nM
dH [2]: -6.5 kcal/mol
stoichiometry N [2]: 0.84
activation of CaMKII (phosphorylation of syntide), K0.5 [3]: 1.4 µM
Substance: CaMCC, a chimeric molecule composed of two C-lobes of CaM

Kd1 (binding mode 1) [1]: 18 nM
Kd2 (binding mode 2) [1]: 360 nM
N1 (binding mode 1) [1]: 0.36
N2 (binding mode 2) [1]: 0.61
dH1 (binding mode 1) [1]: -6.3 kcal/mol
dH2 (binding mode 2) [1]: -14.7 kcal/mol
Kd1 (binding mode 1) [2]: 0.064 µM
Kd2 (binding mode 2) [2]: 0.34 µM
N1 (binding mode 1) [2]: 0.26
N2 (binding mode 2) [2]: 0.62
dH1 (binding mode 1) [2]: 0.7 kcal/mol
dH2 (binding mode 2) [2]: -18.1 kcal/mol
Substance: CaMNN, a chimeric molecule composed of two N-lobes of CaM

Kd [2]: 1320 nM
dH [2]: -12.8 kcal/mol
stoichiometry N [2]: 0.83
Kd [4]: 1900 nM
dH [4]: 1.7 kcal/mol
stoichiometry N [4]: 0.823
dH [5]: -11.1 kcal/mol
stoichiometry N [5]: 1.08
Substance: wild-type calmodulin (from UniProt P0DP23 1-149) (natural protein; other documents disagree on this pair)
